This passage reports protein stability index results from the supplement of paper PMC10567573.

B1: ZNF449 (parent)
chain: YRHQRLHTGERPYECTVCKKRFTR
B2: WDFY2 (parent)
chain: FWNFKQMWDSKKIGLRQHHCRKCG
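Further: lentivirally expressed fusions sorted by FACS into six bins by GFP to DsRed ratio, PSI derived from sequencing read proportions per bin multiplied by bin number.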

Variants of B1 are the subject of one series. Description: protein stability index of a GFP-peptide fusion (GPS, HEK-293T) (PSI 1-6); higher = more stable. Conditions: c terminus: a fixed tail appended.
For YRHTRLHTGERPYECTVCKKRFTR, the protein stability index stood at 2.64.

Consider YRHYRLHTGERPYECTVCKKRFTR, for which the protein stability index came to 1.78.

In the case of YRHLRLHTGERPYECTVCKKRFTR, the protein stability index stood at 1.78.

Turning to YRHSRLHTGERPYECTVCKKRFTR, the protein stability index turned out to be 2.35.

Consider YRHFRLHTGERPYECTVCKKRFTR, for which the protein stability index is 1.88.

In the case of YRHPRLHTGERPYECTVCKKRFTR, the protein stability index turned out to be 2.03.

As to YRHQRLHTGERPEECTVCKKRFTR, the protein stability index is 2.63.

Regarding YRHQRLHTGERPAECTVCKKRFTR, the protein stability index came out at 2.43.

With YRHQRLHTGERPNECTVCKKRFTR, the protein stability index is 2.04.

For the variant YRHQRLHTGERPFECTVCKKRFTR, the protein stability index worked out at 2.86.

As to YTHQRLHTGERPYECTVCKKRFTR, the protein stability index came out at 1.8.

On to YPHQRLHTGERPYECTVCKKRFTR, for which the protein stability index worked out at 1.63.

YLHQRLHTGERPYECTVCKKRFTR: the protein stability index came out at 2.16.

With YRHQRLHTGERPYECWVCKKRFTR, the protein stability index worked out at 2.03.

YRHQRLHTGERPYECAVCKKRFTR: the protein stability index turned out to be 2.12.

YRHQRLHTGERPYECQVCKKRFTR: the protein stability index came out at 2.27.

As for YRHQRLHTGERPYECHVCKKRFTR, the protein stability index was determined as 2.24.

As to YRHQRLHTGERPYECLVCKKRFTR, the protein stability index was 2.08.

With YRHQRLHTGERPYECMVCKKRFTR, the protein stability index came out at 1.98.

As for YRHQRLHTGERPYECTVCKKRFTS, the protein stability index came out at 2.3.

On to YRHQRLHTGERPYECTVCKKRFTA, for which the protein stability index came out at 2.35.

In the case of YRHQRLHTGERPYECTVCKHRFTR, the protein stability index was 2.17.

Turning to YRHQRLHTGERPYECTVCKLRFTR, the protein stability index is 1.73.

Consider YRHQRLHTGERPYLCTVCKKRFTR, for which the protein stability index amounted to 2.38.

Turning to YRHQRLHTGERPYDCTVCKKRFTR, the protein stability index was 2.23.

Take YRHQRLHTGERPYSCTVCKKRFTR: the protein stability index was 2.69.

For YRHQRLHTGERPYMCTVCKKRFTR, the protein stability index is 2.58.

YRHQRLHTGERPYECTVCKKRHTR: the protein stability index is 3.21.

For YRHQRLHTGERPYECTVCKKRKTR, the protein stability index came out at 2.79.

Turning to YRHQRLHTGERPYECTVCKKRATR, the protein stability index was determined as 2.93.

For the variant YRHQRLHTGERPYECTVCKKRGTR, the protein stability index came to 2.27.

As to YRHQRLHTLERPYECTVCKKRFTR, the protein stability index was 2.21.

As for YRHQRLHTHERPYECTVCKKRFTR, the protein stability index was determined as 2.81.

Consider YRHQRLHTVERPYECTVCKKRFTR, for which the protein stability index was found to be 2.07.

As to YRHQRLHTAERPYECTVCKKRFTR, the protein stability index was 2.26.

YRHQRLHTFERPYECTVCKKRFTR: the protein stability index was 2.01.

Turning to YRHQRLHTGEYPYECTVCKKRFTR, the protein stability index came to 2.76.

As for YRHQRLHTGECPYECTVCKKRFTR, the protein stability index amounted to 3.21.

On to YRHQRLHTGEAPYECTVCKKRFTR, for which the protein stability index worked out at 2.26.

YRHQRLHTGEDPYECTVCKKRFTR: the protein stability index came out at 2.67.

On to YRHQRRHTGERPYECTVCKKRFTR, for which the protein stability index is 2.7.

Consider YRHQDLHTGERPYECTVCKKRFTR, for which the protein stability index was found to be 2.06.

As to YRHQELHTGERPYECTVCKKRFTR, the protein stability index was found to be 1.91.

As for YRHQVLHTGERPYECTVCKKRFTR, the protein stability index was 2.19.

YRHQRLHTGERPYECTVCKKRFSR: the protein stability index was 2.09.

In the case of YRHQRLHTGERPYECTVHKKRFTR, the protein stability index is 3.48.

For the variant YRHQRLHTGERPYECTVWKKRFTR, the protein stability index was determined as 2.21.

As to YRHQRLHTGERPYECTVYKKRFTR, the protein stability index was determined as 2.96.

Take YRHQRLHTGERPYEETVCKKRFTR: the protein stability index is 3.35.

With YRHQRLHTGERPYELTVCKKRFTR, the protein stability index came out at 3.11.

As for YRHQRLHTGERPYERTVCKKRFTR, the protein stability index is 3.53.

With YRHQRLHTGERPYEFTVCKKRFTR, the protein stability index amounted to 3.02.

Take YRHQRLHTGERKYECTVCKKRFTR: the protein stability index worked out at 2.62.

On to YRHQRLHTGERDYECTVCKKRFTR, for which the protein stability index came to 2.83.

Consider YRHQRLHTGERPYECTVCPKRFTR, for which the protein stability index came to 2.69.

On to YRHQRLHTGERPYECTVCLKRFTR, for which the protein stability index was found to be 2.2.

YRHQRLHTGERPYECTVCEKRFTR: the protein stability index worked out at 2.01.

For YRHQRLHTGERPYECTVCYKRFTR, the protein stability index turned out to be 1.95.

On to YRHQRLHTGERPYECTVCMKRFTR, for which the protein stability index came out at 2.12.

On to YRHQRLHTGERPYECTVCHKRFTR, for which the protein stability index amounted to 1.55.

For the variant YRHQRLHTGERPYECTYCKKRFTR, the protein stability index is 2.2.

Regarding YRKQRLHTGERPYECTVCKKRFTR, the protein stability index was found to be 2.05.

In the case of YREQRLHTGERPYECTVCKKRFTR, the protein stability index amounted to 1.83.

Turning to YRHQRLPTGERPYECTVCKKRFTR, the protein stability index was 1.84.

As for YRHQRLCTGERPYECTVCKKRFTR, the protein stability index is 2.65.

Regarding IRHQRLHTGERPYECTVCKKRFTR, the protein stability index came to 2.55.

For WRHQRLHTGERPYECTVCKKRFTR, the protein stability index stood at 1.97.

As for YRHQRLHTGARPYECTVCKKRFTR, the protein stability index is 2.38.

For the variant YRHQRLHTGSRPYECTVCKKRFTR, the protein stability index came out at 2.62.

Consider YRHQRLHTGRRPYECTVCKKRFTR, for which the protein stability index was found to be 2.81.

Take YRHQRLHTGERPYECTVCKKDFTR: the protein stability index was determined as 2.46.

For YRHQRLHTGERPYECTVCKKCFTR, the protein stability index worked out at 2.01.

On to YRHQRLHTGERPYECTVCKKFFTR, for which the protein stability index is 2.1.

Regarding YRHQRLHTGERPYECTVCKKAFTR, the protein stability index was determined as 2.06.

With YRHQRLHNGERPYECTVCKKRFTR, the protein stability index came out at 2.56.

On to YRHQRLHRGERPYECTVCKKRFTR, for which the protein stability index amounted to 2.87.

Take YRHQRLHWGERPYECTVCKKRFTR: the protein stability index stood at 2.39.

The variants in the next series derive from B2. The description is as above. The conditions noted are these: c terminus: a fixed tail appended.
On to FWNFKQMWDSKKIGLRQHHCRKCI, for which the protein stability index came to 1.51.

With FWNFKQMWDSKKIGLRQHHCRKCT, the protein stability index amounted to 2.7.

Turning to FWNFKQMWDSKKIGLRQHHCRKCY, the protein stability index was found to be 2.73.

As for FWNFKQMWDSKKIGLRQHHCRKCF, the protein stability index was determined as 1.23.

With FWNFKQMWDSKKIGLRQHHCRKCQ, the protein stability index stood at 1.95.

For the variant FWNFKQMWDSKKIGLRQHHCRKCM, the protein stability index stood at 2.38.

Turning to FWNFKQMWDSKKIGLRQHHCRKCP, the protein stability index stood at 2.03.

As for FWNFKQMWDSKKIGLRQHHCRKCH, the protein stability index came out at 1.71.

For the variant FWNFKQMWDSKKIGLRQHHCRKCS, the protein stability index worked out at 2.39.

For FWNFKQMWDSKKIGLRQHHCRKCR, the protein stability index came to 2.3.

Consider FWNFKQMWDSKKIGLRQHHCRKCV, for which the protein stability index came out at 3.27.

Consider FWNFKQMWDSKKIGLRQHHCRKCK, for which the protein stability index was found to be 1.98.

Turning to FWNFKQMWDSKKIGLRQHHCRKCW, the protein stability index is 1.68.

Consider FWNFKQMWDSKKIGLRQHHCRKCL, for which the protein stability index came to 1.43.

Regarding FWNFKQMWDSKKIGLRQHHCRKCE, the protein stability index came to 2.13.

Regarding FWNFKQMWDSKKIGLRQHHCRKCN, the protein stability index came to 1.67.

On to FWNFKQMWDSKKIGLRQHHCRKCD, for which the protein stability index turned out to be 2.09.
